Experimental data published in patent US20210163614A1 (GMAX BIOPHARM, published 2021).

Biological target: T1, human APJ (apelin receptor) (human, UniProt P35414 1-380)
T1 construct: Expressed on the membrane of stably transfected CHO-DHFR- cells; also called hAPJ; APJ receptor
T1 sequence: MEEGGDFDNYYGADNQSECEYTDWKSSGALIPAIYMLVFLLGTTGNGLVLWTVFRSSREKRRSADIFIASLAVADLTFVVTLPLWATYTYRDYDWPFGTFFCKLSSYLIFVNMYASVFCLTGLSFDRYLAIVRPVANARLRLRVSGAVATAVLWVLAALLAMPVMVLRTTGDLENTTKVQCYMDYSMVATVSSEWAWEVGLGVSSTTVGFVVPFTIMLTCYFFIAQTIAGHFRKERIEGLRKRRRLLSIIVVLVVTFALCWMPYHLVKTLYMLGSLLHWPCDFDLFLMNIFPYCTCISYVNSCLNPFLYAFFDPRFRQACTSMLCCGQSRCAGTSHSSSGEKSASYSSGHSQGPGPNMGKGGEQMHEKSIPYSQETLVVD
Test: cell-based or functional assay

| Binder | EC50, reporter gene assay, activation of Elabela/APJ signaling pathway |
| --- | --- |
| fusion protein of hAPJ antibody L5H5 and Linker2-Elabela-11 (protein, not shown: a dimerising Fc or GST; large carriers) heavy (part 1 of 2): EIQLVESGGGLVKPGGSLRLSCAASGFTFSSYAMSWVRQAPGKGLEWVASISSGGSIYLPDSLKGRFTISRDNAKNSLYLQMNSLRAEDTAVYYCTRGRGNSSAWFAYWGQGTLVTVSS heavy (part 2 of 2): GGGGSGGGGSCMPLHSRVPFP light: DVLMTQSPLSLPVTLGQPASISCRSDQSLVHRTGNTHLDWYQQRPGQSPRLLIYKVSNRFSGVPDRFSGSGSGTDFTLKISRVEAEDVGVYYCFQASHIPFTFGQGTKVEIKR | 3.61 nM |
| fusion protein of hAPJ antibody L5H5 and Linker2-EA5 (protein, not shown: a dimerising Fc or GST; large carriers) heavy (part 1 of 2): EIQLVESGGGLVKPGGSLRLSCAASGFTFSSYAMSWVRQAPGKGLEWVASISSGGSIYLPDSLKGRFTISRDNAKNSLYLQMNSLRAEDTAVYYCTRGRGNSSAWFAYWGQGTLVTVSS heavy (part 2 of 2): GGGGSGGGGSQRRCMPLHSRVPAP light: DVLMTQSPLSLPVTLGQPASISCRSDQSLVHRTGNTHLDWYQQRPGQSPRLLIYKVSNRFSGVPDRFSGSGSGTDFTLKISRVEAEDVGVYYCFQASHIPFTFGQGTKVEIKR | 2.55 nM |
| fusion protein of hAPJ antibody L5H5 and Linker2-EA1 (protein, not shown: a dimerising Fc or GST; large carriers) heavy (part 1 of 2): EIQLVESGGGLVKPGGSLRLSCAASGFTFSSYAMSWVRQAPGKGLEWVASISSGGSIYLPDSLKGRFTISRDNAKNSLYLQMNSLRAEDTAVYYCTRGRGNSSAWFAYWGQGTLVTVSS heavy (part 2 of 2): GGGGSGGGGSQRPRLHSRVPFP light: DVLMTQSPLSLPVTLGQPASISCRSDQSLVHRTGNTHLDWYQQRPGQSPRLLIYKVSNRFSGVPDRFSGSGSGTDFTLKISRVEAEDVGVYYCFQASHIPFTFGQGTKVEIKR | 4.95 nM |
| fusion protein of hAPJ antibody L5H5 and Linker2-EA2 (protein, not shown: a dimerising Fc or GST; large carriers) heavy (part 1 of 2): EIQLVESGGGLVKPGGSLRLSCAASGFTFSSYAMSWVRQAPGKGLEWVASISSGGSIYLPDSLKGRFTISRDNAKNSLYLQMNSLRAEDTAVYYCTRGRGNSSAWFAYWGQGTLVTVSS heavy (part 2 of 2): GGGGSGGGGSQRPRLSHKGPFP light: DVLMTQSPLSLPVTLGQPASISCRSDQSLVHRTGNTHLDWYQQRPGQSPRLLIYKVSNRFSGVPDRFSGSGSGTDFTLKISRVEAEDVGVYYCFQASHIPFTFGQGTKVEIKR | 2.16 nM |
| fusion protein of hAPJ antibody L5H5 and Linker2-EA3 (protein, not shown: a dimerising Fc or GST; large carriers) heavy (part 1 of 2): EIQLVESGGGLVKPGGSLRLSCAASGFTFSSYAMSWVRQAPGKGLEWVASISSGGSIYLPDSLKGRFTISRDNAKNSLYLQMNSLRAEDTAVYYCTRGRGNSSAWFAYWGQGTLVTVSS heavy (part 2 of 2): GGGGSGGGGSQRRCMPLHSRVPMPF light: DVLMTQSPLSLPVTLGQPASISCRSDQSLVHRTGNTHLDWYQQRPGQSPRLLIYKVSNRFSGVPDRFSGSGSGTDFTLKISRVEAEDVGVYYCFQASHIPFTFGQGTKVEIKR | 20.3 nM |
| fusion protein of hAPJ antibody L5H5 and Linker2-EA4 (protein, not shown: a dimerising Fc or GST; large carriers) heavy (part 1 of 2): EIQLVESGGGLVKPGGSLRLSCAASGFTFSSYAMSWVRQAPGKGLEWVASISSGGSIYLPDSLKGRFTISRDNAKNSLYLQMNSLRAEDTAVYYCTRGRGNSSAWFAYWGQGTLVTVSS heavy (part 2 of 2): GGGGSGGGGSQRRCLSHKGPMPF light: DVLMTQSPLSLPVTLGQPASISCRSDQSLVHRTGNTHLDWYQQRPGQSPRLLIYKVSNRFSGVPDRFSGSGSGTDFTLKISRVEAEDVGVYYCFQASHIPFTFGQGTKVEIKR | 5.4 nM |

Biological target: T1, human APJ (apelin receptor)
Test: FACS on CHO-DHFR-hAPJ cells, antibody at 500 nM and 4 nM, blank CHO-DHFR- cells as negative control
Procedure: PBS containing EDTA was used to detach and collect 10⁵ CHO-DHFR-hAPJ cells into 1.5 mL EP tubes. The supernatant was removed after centrifugation. The negative control sample was resuspended with a FACS loading buffer (PBS, 2% FBS). For the positive control, 200 μL antibody supernatant with certain concentration was added to resuspend cells and then incubated at room temperature; the cells were then centrifuged at 1500 rpm to remove the supernatant, washed with a FACS loading buffer and centrifuged again. The cells were resuspended followed by addition (200 μL/well) of a FITC labeled goat anti-mouse fluorescent secondary antibody at 1:50 dilution and incubated at room temperature for 30 min in the dark. Supernatant was removed after centrifugation, cells were washed with FACS loading buffer, centrifuged again and resuspended with the loading buffer for analysis.

| Binder | binding result |
| --- | --- |
| hAPJ antibody L1H1 (antibody, V domains shown, also called mouse ascites antibody L1H1) VH: EVQLIETGGGLVQPTGSLQLSCAASGFPFNINAMNWVRQAPGKGLEWVARIRSKSNNYATYYADSVKDRFTISRDDSQSILYLQMNNLKTEDSAMYFCVRGPYLYAMDYWGQGTSVTVSS VL: DIQMNQSPSSLSASLGDTITITCHASQNIHVWLSWYQQKPGNIPKLLIYKASNLHTGVPSRFSGSGSGTGFTLTISSLQPEDIATYYCQQGHSYPLTFGGGTKLEIKR | binds |
| hAPJ antibody L4H4 (antibody, V domains shown, also called mouse ascites antibody L4H4) VH: EIKLVESGGGLVKPRGSLKLSCAASGFTFSSYAMSWVRQTPEKRLEWVASISSGGSIYLPDSLKGRFTISRDNAWNILYLQMNSLKSEDTAMYYCTRGRGNSSAWFAYWGQGTLVTVSA VL: DVLMTQTPLSLPVSLGDQASISCRSDQSLVHRTGNTHLDWYLQKPGQSPKLLIYKVSNRFSGVPDRFSGSGSGTDFTLKISRVEAEDLGVYYCFQASHIPFTFGSGTKLEIKR | binds |
